Measured values published in patent US9192657B2.
Each block holds one substance with its values, some of them ahead of it.

Legend:
[1] = target: endothelial protein C receptor (EPCR) on cells (Homo sapiens (Human)) (UniProt Q9UNN8)
[2] = target: endothelial protein C receptor (EPCR), as in the binding assays (Homo sapiens (Human)) (UniProt Q9UNN8); assay: apparent Kd; binding to immobilized soluble EPCR and to K293 cells transfected with wtEPCR (format of the value not told)
[3] = target: T1, PAR-1 N-terminal tail peptide (TR33-62) (artificial)
T1 sequence (peptide): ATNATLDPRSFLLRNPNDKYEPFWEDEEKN

[4] = target: T1, PAR-1 N-terminal tail peptide (TR33-62) (artificial); remark: listed apart in the source

concentration for half-maximal inhibition of staurosporine-induced endothelial apoptosis (fold higher concentration) [1]: 24 | Kd [2]: > 300 nM
Substance: PTGla-APC (APC with prothrombin residues 1-46) (from UniProt P00734) (enzyme)

PAR-1 peptide (TR33-62) cleavage (% rwt-APC), catalytic efficiency by HPLC [3]: 116 % rwt-APC
Substance: RR229/230AA-APC (enzyme)

PAR-1 peptide (TR33-62) cleavage (% rwt-APC), catalytic efficiency by HPLC [3]: < 3 % rwt-APC
Substance: S360A-APC (enzyme)

cleavage of the TR33-62 peptide at Arg41, HPLC (fold lower kcat/Km than thrombin) [4]: 25000
Substance: recombinant wild-type activated protein C (enzyme)
